Where a chain is given by its changes, count along the chain named.
B1: t808240 (protein)
chain: MGNTTSIGVVRDCLTSAVGGVAAHVAFQDTLLYQTSAVKPYNLNVPVTPAAVTYPQSANEVAAIVKCASDYDYKVQARSGGHSFGNFGLGGQNGAIVIDMKHFSQFSMDESTFIATIGPGTTLGNLDTELYNAGNRAMAHGICPSIRTGGHLTVGGLGPTSRQWGLALDHVEEVEVVLANSSVVRASDTQNQDVLFAIKGAAASFGIVTEFKVRTEEAPGLAVRYSYSFNLGTPAEKAKLAKDWQAYIAQENLTWKFSSNLIIFDGQIILEGIFFGSKEEYDKLNLEKKFPTSEPGTVLVITNWLGMIGHALEDTILRLIGDSPTWFYAKSLGFTPNTLIFDSTIDEFFDYIHKANAGTLAWSVMLSLEGGAINAVPKNATAYGHRDVLFWVQIFVVNPLGPISQTTYGFTDGLYNILARGVPESAGHAYLGCPDPKMPDAQRAYWRNNYPRLEELKRDLDPKDIFHNPQGVRVAS
B2: t808247 (protein)
chain: MGNTTSIAAGRDCLVSAVGPAHVTFQDALLYQTTAVDPYNLNIPVTPAAVTYPQSAEEIAAVVKCASDYDYKVQARSGGHSFGNYGLGGQNGAIVVDMKHFSQFSMDESTFVATIGPGTTLGDLDTELYNAGGRAMAHGICPTIRTGGHLTVGGLGPTARQWGLALDHIEEVEVVLANSSIVRASNTQNQDILFAVKGAAASFGIVTEFKVRTQEAPGLAVQYSFTFNLGSPAQKAKLVKDWQAFIAQENLSWKFYSNLVIFDGQIILEGIFFGSKEEYDELDLEKRFPTSEPGTVLVLTDWLGMIGHALEDTILKLVGDTPTWFYAKSLGFTPDTLIPDSAIDDFFDYIHKTNAGTLAWFVTLSLEGGAINSVSEDATAYGHRDVLFWFQVFVVNPLGPISQTTYDFTNGLYDVLAQAVPESAGHAYLGCPDPKMPDAQRAYWRSNLPRLEDLKGDLDPKDTFHNPQGVQVGP
B3: t808253 (protein)
chain: B2 chain with D97E, A131T, P232A, A309G
B4: t861557 (protein)
chain: MLKTIAAVVFICSQAFLVRADLKSELTALGVGAVFPGDSVYTSDAKPYNLRFDFKPAAITFPNTPADVSQIVQIAGKYAHKVAPRGGGHSYISNGVGGMDNSIIADMSHFKSIVVHTNNDTATIETGNRLGDIALALFQYGRGMPHGACPYVGIGGHANFGGFGFISRSWGLTLDVVEAIDLVLANGTITTVSATQNPDLYWAMRGSGSSFGITTAIHVRTFSAPASGIIALDTWYLNLEQAVRALSSFQDFAHNTVTLPSYFGGEFVVNAGPSPGLLSITFFSGFWGPPNQYNSTLAPWKNSMPFPPNTTSYSQGNYIESLSARFGGAPLDTSLGPDNTDTFYVKSLIVPQVTISDEGAQVGISDKAWRALFQYLINEQPNLPVDWFIEVELWGGQNSAINAVPQASTAFAYRDLLWTLQMYSYTPNHQPPYPDAGFAFNDGMANSIIHNMPNGWNYGAYTNYVDNRLDDWQRLYYANHYPALQALKSRYDPSDTFSFPTSIELL
B5: t861562 (protein)
chain: MGNTTSIAAGRDCLISAVGGNAAHVAFQDQLLYQATAVEPYNLNIPITPAAITYPQSADEIAAVVKCASEYGYKVQARSGGHSFGNYGLGGEDGAIVVEMKHFSQFSMDESTYIATIGPGITLGDLDTELYNVGHRAMAHGICPTIRTGGHLTVGGLGPTARQWGLALDHVEEVEVVLANSSIVRASDTQNQDIFFAIKGAAASFGIVTEFKVRTEQAPGLAVQYSYTFNLGTPAEKAKLVKDWQAFIAQENLSWKFYSNMVVFDGQIILEGLYFGSKEEYDALGLEQRFPPSEAGNVLVLTDWLGMVGHELEDTILRLVGNTPTWFYAKSLGFTPRALIPDSAIDDLFNYIHENNPGTLAWFVTLSLEGGAINTVPEHATAYGHRDVLFWVQIFVINPLGPVSQTTYGFADGMYDVLAQAVPESAGHAYLGCPDPRMPNAQQAYWRSNLPRLEELKGDLDPKGIFHNPQGVMVVS
B6: t861555 (protein)
chain: MGNTTSIAGRDCLISALGGNSALAVFPNELLWTADVHEYNLNLPVTPAAITYPETAAQIAGVVKCASDYDYKVQARSGGHSFGNYGLGGADGAVVVDMKHFTQFSMDDETYEAVIGPGTTLNDVDIELYNNGKRAMAHGVCPTIKTGGHFTIGGLGPTARQWGLALDHVEEVEVVLANSSIVRASNTQNQDVFFAVKGAAANFGIVTEFKVRTEPAPGLAVQYSYTFNLGSTAEKAQFVKDWQSFISAKNLTRQFYNNMVIFDGDIILEGLFFGSKEQYDALGLEDHFAPKNPGNILVLTDWLGMVGHALEDTILKLVGNTPTWFYAKSLGFRQDTLIPSAGIDEFFEYIANHTAGTPAWFVTLSLEGGAINDVAEDATAYAHRDVLFWVQLFMVNPVGPISDTTYEFTDGLYDVLARAVPESVGHAYLGCPDPRMEDAQQKYWRTNLPRLQELKEELDPKNTFHHPQGVMPA
B7: t861559 (protein)
chain: MAPSISFSLLQISLLAYSGLVSGDFSLRQCLESAVSRVAFEGDPFYQLLSVRPYNLDISIVPAAVAFPADTNEVAAVVRCAAQNGYQVQAKSGGHSYANHGLGGTNGAVVVNLENLQHFSMNTTTWEATIGAGTLLGDVTKRLSDAGGRAMAHGTCPQVGSGGHFTIGGLGPSSRQFGAALDHIIEAEVVLANSSIIRASETENPDVFFAVRGAASGFGIVTEFKVRTEPEPGQAVRYSYSFSFSDTATRADLFKKWQAYVTQPDLPRELASTLTILEHGMFITGTFFGSKEEYNALKIETEFPGFAKGGTLVLDDWLGLVSNWAEDLLLSEEEIEQMFEYIDNVDKGTLLWFAIFDLQGGAVGDVPVDATAYAHRDTLIWLQSYAINLFGRISETTVEFLERLNELTLTSTAKTVPYAAYPGYVDPRLTDAQAAYWGSNLARLNRIKAEIDPNNVFHNPQSVRPASG
B8: t861586 (protein)
chain: B7 chain

System: CBCA, THCA, and CBDA production; CBGA residual substrate
Assay: In vivo TS activity assay, Example 3 metagenomic CBCAS screen, cultures fed olivetolic acid
Assay type: cell-based, S. cerevisiae
Settings: metagenomic CBCAS candidates in S. cerevisiae, secondary screen, fed 1 mM olivetolic acid, quadruplicate
Description: (§1) An assay to detect TS activity was conducted as follows: each thawed glycerol stock of candidate CBCAS transformants was stamped into a well of YEP+4% dextrose media. Samples were incubated at 30° C. in a shaking incubator for 2 days. A portion of each of the resulting cultures was stamped into a well of YEP+4% galactose+1 mM olivetolic acid (FIG. 1 Structure 6a). Samples were incubated at 20° C. and shaken in a shaking incubator for 4 days. Every 24 hours during those 4 days, 2% galactose and 1 mM olivetolic acid were spiked into the cultures. Sodium citrate buffer adjusted to pH 5.5 was added to each well at a final concentration of 100 mM. Samples were incubated at 20° C. and shaken in a shaking incubator for 2 days. A portion of each of the resulting production cultures was stamped into a well of phosphate buffered saline (PBS). Optical measurements were taken on a plate reader, with absorbance measured at 600 nm and fluorescence at 528 nm with 485 nm excitation. Samples were incubated at 30° C. in a shaking incubator for 2 days. 100% methanol was stamped into the production cultures in half-height deepwell plates. Plates were heat sealed and frozen. Samples were then thawed for 30 min and spun down at 4° C. A portion of the supernatant was stamped into half-area 96 well plates. CBCA, THCA, and CBDA production in the samples was quantified via liquid chromatography-mass spectrometry (LC-MS).
(§2) To explore whether other putative CBCASs may exist in the broader metagenome, a library of 1072 candidate CBCAS genes was designed using the A. niger CBCAS enzyme identified in Example 1 as a reference. Protein sequences were recoded in silico for expression in S. cerevisiae and synthesized in the integrative yeast expression vector shown in FIG. 5. Each candidate enzyme expression construct was transformed into an S. cerevisiae CEN.PK strain that also expressed a prenyltransferase enzyme capable of catalyzing reaction R^4 in FIG. 2. Strain t616313, expressing GFP, was included in the library screen as a negative control for enzyme activity. Strain t807925, expressing the A. niger enzyme identified in Example 1, was included in the library screen as a positive control for enzyme activity. All candidate enzymes in the library, as well as the enzyme expressed by positive control strain t807925, included an N-terminal MFalpha2 signal peptide (SEQ ID NO: 16) (with a methionine residue added at the N-terminus of the MFalpha2 signal peptide) and a C-terminal HDEL signal peptide (SEQ ID NO: 17).
The library of candidate CBCAS enzymes was assayed for activity in a primary high-throughput screen using the assay described in Example 1. Production of CBCA, THCA, and/or CBDA in the samples was quantified via LC-MS.
(§3) Based on results of the primary screen, 70 strains were carried forward to a secondary screen to confirm activity observed in the primary screen. The experimental protocol for the secondary screen was identical to the primary screen, except that additional technical replicates were included per strain, and replicate production cultures for each strain were separately fed 1 mM olivetolic acid or 1 mM divaric acid. All strains were screened in quadruplicate (FIGS. 10A-10C, Tables 10 and 11).

Row | Molecule | Mean CBCA [µg/L] | Mean CBDA [µg/L] | Mean THCA [µg/L]
1 | B1 | 6248.43 | 0.00 | 115.70
2 | B2 | 27052.63 | 420.85 | 1703.93
3 | B3 | 15518.14 | 63.99 | 916.93

Same assay, conditions: olivetolic acid fed (Table 12)

Row | Molecule | Average CBGA residual substrate [µg/L]
4 | B1 | 24393.82
5 | B2 | 0.00
6 | B3 | 0.00

Same assay, conditions: share of terminal cannabinoid product profile, fed 1 mM olivetolic acid

Row | Molecule | % CBCA [%] | % CBDA [%] | % THCA [%]
7 | B1 | 98.18 | 0.00 | 1.82
8 | B2 | 92.72 | 1.44 | 5.84
9 | B3 | 94.05 | 0.39 | 5.56

System: CBCVA, THCVA, and CBDVA production; CBGVA residual substrate
Assay: In vivo TS activity assay, Example 3 metagenomic CBCAS screen, cultures fed divaric acid
Assay type: cell-based, S. cerevisiae
Settings: divaric acid fed (Table 12)
Description: as §1, §2, §3

Row | Molecule | Average CBGVA residual substrate [µg/L]
10 | B1 | 4054.85
11 | B2 | 0.00
12 | B3 | 0.00

Same assay, conditions: secondary screen, cultures fed 1 mM divaric acid, S. cerevisiae, quadruplicate, LC-MS

Row | Molecule | Mean CBCVA [µg/L] | Mean CBDVA [µg/L] | Mean THCVA [µg/L]
13 | B1 | 4282.13 | 0.00 | 888.75
14 | B2 | 2651.55 | 15.16 | 1783.19
15 | B3 | 1476.99 | 0.00 | 715.85

Same assay, conditions: share of terminal cannabinoid products, cultures fed 1 mM divaric acid

Row | Molecule | % CBCVA [%] | % CBDVA [%] | % THCVA [%]
16 | B1 | 82.81 | 0.00 | 17.19
17 | B2 | 59.59 | 0.34 | 40.07
18 | B3 | 67.35 | 0.00 | 32.65

System: CBCA production
Assay: In vivo TS activity assay, Example 4 CBCAS enzymes with and without signal peptides, no pH adjustment
Assay type: cell-based
Settings: strains with (Y) or without (N) N-terminal and C-terminal signal peptides; no pH adjustment at Day 4; S. cerevisiae
Description: as §1
A library of 20 CBCAS enzymes selected from Example 1 and 3 was synthesized, including versions of the CBCAS enzymes with and without the N-terminal MFalpha2 signal peptide (SEQ ID NO: 16) and C-terminal HDEL signal peptide (SEQ ID NO: 17). Each candidate enzyme expression construct was transformed into an S. cerevisiae CEN.PK strain that also expressed a prenyltransferase enzyme capable of catalyzing reaction R^4 in FIG. 2. Strain t861555 expressing the A. niger CBCAS identified in Example 1, carrying both the Mfalpha2 and HDEL signal peptides was included in the library screen as a positive control for enzyme activity. Strain t861565 expressed the same A. niger CBCAS without the Mfalpha2 and HDEL signal peptides.
The strains were screened using the assay described in Example 1 with the following exception: at Day 4 samples were not subjected to a pH adjustment and a further 2 days of incubation at 20° C.

Row | Molecule | Average CBCA [µg/L]
19 | B4 | 520.64
20 | B5 | 55737.91
21 | B6 | 21237.64
22 | B7 | 0.00
23 | B8 | 0.00

From patent US20230137139A1, “BIOSYNTHESIS OF CANNABINOIDS AND C[…]” (priority 2020, published 2023)
